The target of experiment [1] is IL2-Ra ectodomain with C-terminal 6xHis tag (UniProt P01589). The experiment in a line: BLI (Octet RED384), biotinylated monomeric IL-2/Fc on streptavidin sensors, equilibrium binding.
A further experiment has as its target IL-2Rβ/γ Fc heterodimer (UniProt P14784). Description: BLI (Octet RED384), biotinylated monomeric IL-2/Fc on streptavidin sensors, 1:1 kinetic fit. On the technique in general: Biolayer interferometry detects binding as a change in optical thickness at a sensor tip.
Chain of UniProt P14784 (P14784 other isoform, or with tags, fused parts or gaps, chain 1 of 2): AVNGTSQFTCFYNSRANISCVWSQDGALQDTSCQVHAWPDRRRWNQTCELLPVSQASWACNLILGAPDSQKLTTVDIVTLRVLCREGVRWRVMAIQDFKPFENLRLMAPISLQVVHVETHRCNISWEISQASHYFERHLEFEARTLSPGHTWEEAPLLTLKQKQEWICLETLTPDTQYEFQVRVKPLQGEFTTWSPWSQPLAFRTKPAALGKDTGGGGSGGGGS
Chain of UniProt P14784 (P31785 other isoform, or with tags, fused parts or gaps, chain 2 of 2, further chain): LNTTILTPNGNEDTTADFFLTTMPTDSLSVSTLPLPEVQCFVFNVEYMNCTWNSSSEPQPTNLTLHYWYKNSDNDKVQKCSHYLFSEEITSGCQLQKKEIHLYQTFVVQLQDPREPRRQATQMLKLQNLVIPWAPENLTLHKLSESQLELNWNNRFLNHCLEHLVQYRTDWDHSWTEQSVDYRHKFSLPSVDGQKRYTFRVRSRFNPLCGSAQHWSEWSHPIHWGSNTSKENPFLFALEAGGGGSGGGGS

Chain of UniProt P01589 (P01589 other isoform, or with tags, fused parts or gaps limits assumed): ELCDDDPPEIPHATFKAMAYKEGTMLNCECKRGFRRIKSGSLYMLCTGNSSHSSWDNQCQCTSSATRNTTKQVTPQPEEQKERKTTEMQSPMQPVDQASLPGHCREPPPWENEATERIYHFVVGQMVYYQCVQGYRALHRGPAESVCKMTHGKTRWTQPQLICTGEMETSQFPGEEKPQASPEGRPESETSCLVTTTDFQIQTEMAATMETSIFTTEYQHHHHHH

For the substance WT C-term (Fc fusion), the Kd in experiment [1] stood at 0.54 nM; with IL-2Rβ/γ Fc heterodimer, 3.04 nM.

As to V91K C-term (Fc fusion), the Kd was determined as 0.69 nM in experiment [1] and 7.56 nM with IL-2Rβ/γ Fc heterodimer.

In the case of R38Q N-term (Fc fusion), the figures for the Kd (in experiment [1]; with IL-2Rβ/γ Fc heterodimer) were 0.71 nM and 3.99 nM, respectively.

H16N N-term (Fc fusion): the Kd is 0.43 nM in experiment [1] and 22.4 nM with IL-2Rβ/γ Fc heterodimer.

With N88D C-term (Fc fusion), the Kd was found to be 1.01 nM in experiment [1] and 24 nM with IL-2Rβ/γ Fc heterodimer.

For F42Q N-Term (Fc fusion), the Kd was 9.48 nM in experiment [1] and 2.81 nM with IL-2Rβ/γ Fc heterodimer.

With WT N-term (Fc fusion), the Kd was determined as 0.19 nM in experiment [1] and 5.3 nM in the experiment with IL-2Rβ/γ Fc heterodimer.

One may read the Kd as the equilibrium constant for the complex coming apart. High values mean weaker binding, low ones tighter binding.

Source of the values: patent US20250051414A1.
